This passage reports protein production results from a protein production outcome set (Wang et al. 2014).

A short description of the data set: label from the status in PepcDB records.
On to “MKINKLLFGMLLLLLASCGSSRKVEKQSEQVAVQEINLTPEQQRKYDYFFLEASRLKVKKEYTAAFDLLQHCLAINPTGSAALYEIAQYYLFLKQAPQGQEALEKAVAYAPDNYWYSQALAGLYQQQDQKEKAIGILEKMATRFPAKQDPLFNLLDLYNQKEDYGKVISTLNRIEEKTGKNEQITMEKFRIYLQMKDDKKAFEEIESLVNEYPMDYRYQVILGDVYMQNGKKQEAYDTYKKVLAAEPDNPMALFSLASYYEQTGQKELFEQQMDTLLLNRKVPSDTKVNVMRQFIVQSEQEGKDSTQVIGLFDRMMQMDMDDVQIPMLYAQYLLSKGMEAQSIPVLEQVVQIDPTNKAARMTLLGSAIRKNDYEQVIKICEPGIEATPDALEFYFYLVIAYNQAEHWDDVLEVSRKALEHVTPESDKQMVSDFYTIIGDVYHTKKLMKEAYAAYDSALVYNPSNIGALNNYAYYLSVERRDLDKAEEMSYKTVKAAPNNATYLDTYAWILFEKGNYAEARIYIDDAIKNTKPEEESSVVFEHCGDIYFMTGDVEGALKYWKKALELGTESKTLKQKIEKKKYIAE”, for which the protein production result was “failed”.
Turning to “MKINMHILGLLVVVGLFSLQSCDDESYDIEGSNQNYVYINVNRWTSTEYPQNTFVYEVLRTPIGSSLESGPEIVKVGVRSTKVASKDITVTLDIDNCASIGEFSSFPDGVKVTLDKKELVIPAGSMLSSDSVTIEIEDGKWSEFVNTSYLLPLKVTSVSNAALSETHSSAYLAVSTSFTNCVPGATSVEGTLISDRSAWTATNNGVDVGTTLFDGNTRTYPSQDASSTVIVNLNGVYQNITGIRLQYYSRNYSLSSAAVYTSETGGEDYEYQGNVTFSRATPQYIRFYGAVSARYVKLELLPYSSGYGIVLSEFDMYQNE”, the protein production result is listed as “failed”.
For the sequence “MKIQDYTKQMVDEKSFIDMAYTLLNDKGETMNLYDIIDEFRALGDYEYEEIENRVVQFYTDLNTDGRFLNVGENLWGLRDWYSVDDIEEKIAPTIQKFDILDADDEEDQNLKLLGEDEMDDDDDIPAQTDDQEELNDPEDEQVEEEINHSDIVIEEDEDELDEDEEVFEDEEDFND”, the protein production result is “not failed”.
For “MKIRVADEKELPMILQFLTEVKAYMDVVGITQWTKDYPSQGDIQEDITKKRLYLLVHEEMIFSMATFCMEQEQDFVWLKRFATSPNYIAKGYGSLLFHELEKRAVWEGRRKMYAQTNHTNHRMIRFFESKGFTKIHESLQMNRLDFGSFYLYVKELENQSIV”, the protein production entry is given as “not failed”.
“MKISFSESQKLFAYFSGLIAALSLFIYYVSAQQSEGALILCITFGVIAAGIWFGPIYALAVTLIVLFVLGTLMMFFQTGQTSLFPAEEGLRMLVVWGIALLLFSFISGRIHDITAELRRSMTRLQSEIKSYVAVDRVTGFDNKQRMKLELSEEIKRAERYGNSFVFLLLHMHYFKEFKSLYGEKETDRLFQYVGQQIRTSVRETDKKFRPSDERIGIVLTHTPAEHMPAVLTKLKKQLDTYQLENGKYVSLTFHVCYLPYRNDIQTADQFLEELENEMMMNEL”: the protein production entry is given as “failed”.
As for “MKITFISGQEVSLGTSFLLFSKKIVMNELNQPLLAIIKNVAKTKNLSIEEVVFCLKTALEQAYKKHLNFVNVEVNINFDKGIINVEQLFNVVSDENEDYDDFLEIPLQAANKINSSLQLGDVLRKPIPLKNISSDLINKMIAIFNQKISETNFKAVMSEFSSEVGEVIEAKVEDIDTNKEGGLKGYIINLETTKGYISKRELSKGERLEIGKKYLFVIKEIQRQASLWPITLSRSDTRLLQFLLTSNTPEIENGTIVIKKIERSPGVKSKIAVISNDPAVDPVAAILGPKGEKIRGISEEFNGEIIDIVFWNEDKLKFLINAILPAEVIGYNILQDDERDTSIEVVVPANQIANVFGFKGVNIRLISNLTGWNSVDVYSEKDASEANIKFTRLSFEPEGLFGIKKRREKIISNDATDKVFYTSKDNVIDDEIIVDLAKDLMVDNKQKQPEQVAKQVVEKSQLEKQVTPKEKEKVQPKAKVHSNSHSKKPAKPNQIFSITVDASDKNLKKDQVDNNQTNPQTKQTFDSFDDL”, the protein production result is given as “failed”.
As to “MKITLEHWFYNWLFEYRIKDLKPKSFERYESIYRNYIKDTDLGNVKLKYLRVSHIQKYYNRLLDSNKSIPTIRQINTKLKTCLSEAEKQGLIQRNYCTMVNIPLEHHHHHH”, the protein production entry is “not failed”.
“MKIVILGAGRVGSTVAESLASESNDITVVDLVRNRLSLLQERLDLRTVVGSASHPDIMIQAGMEDADMILALTGSDETNLVACKLAASMFNTPTRIARIRTVDYLDHPDIFSRENFCVDFAICPERILTKYIEKLIEFPGALQVLDFASGKVSLVAVKAIRGGPLIGRQLKELRRHVPNLDTRVAAIFRHNHPIIPEGSTIVEEGDEVFFIASSSDIRAVMGELRRMDKSVRRVMIAGGGRIGRRLAEVLQQSHQVRIIERDIKVCESLTQNLHNTLILHGNVTDEELLESENISEMDIFCALTDDEENNIMAALMAKRMGARKVIALINRSMYVDLMQDSGIDIAISPAQVTIGSLLAYVRQGDVAVVHSLRRGAAEALELVAHGDTRSSRVVGRKIEEIKLPRSTTIGAIVRGLPPGDVYRNLSEQEEDSILAQWKQAQVIIAHHDTVIEQNDHVILFVVNKKMVRQVEKLFQVNVGFL”: the protein production result was “failed”.
Take “MKIVSKSSPLPLHYQLKMILQEMIENEELLPGDTIPTERELCEIQKISRMTVNKAILSLVSEGILYREQGKGTFVAKKKEKQQLTKLKSFTEEMREKGLNISTKILSFEIKTATKHISTLLELPHKKMKVIEIIRLRLTDNDPSAIETVVLPLYLFSDMTKEVIDGKSLYNTFREKYGYEPTKAKQTIEPIMLTDYEAKFLNQVGNSLALLFRRLTYRKDGVPIEYTKSIYRSEKYKYEVILT”: the protein production entry is reported as “failed”.
As for “MKIYASDEQYKQMNEELDERVESLVSELTLDEKIRLMCQYQEAVPRLGIGKYKHGTEGAHGVAWLGKATVFPQNIGLGCTWNEELMKKIGDVIAEEARVYYQENPEQNGLTIWAPTVDMERDPRWGRTEEAYGEDPYLTGKLTTELIKGMQGDHPFYLKTAATLKHFLANNNEEARTECSVSIDPRNLREYYLKAFEPQVKEGHVQCVMTAYNAVNGTLCNMNPDVNAILKEEWGLQGFVVSDACDVVGSVDDHQFVESYAEAVALSIKNGIDNVTDDEKIIHRAIGDALEQGLLSEEDLDQALKRVFRVRIRLGEFDQENKNPYATVAKEKLCA”, the protein production result was “failed”.
Next, “MKIYFEAYGCTLNQGETALYVNKLLNEGNTLVSNPKEADLSIIGTCAVIKKTEDHMMARIQNLSRFGKVEVIGCLAPVKGKTMVEDNVSVIEKDRFRSFQEVIDEVSPVNAEIVSGIPINQGCTGKCNFCVSHIARGKLVSRKPEKIAGQIKILLQRGIKEIKITSLDTAAYGKDIGLRLPHLIRTITEIGDDFRLRVGMMEPKNTLEIVDDLISAYRSEKVFKFLHLPVQSGDDYVLEVMNREYTVSDFIRITGKFREAFPDSTLSTDLIIGYYAENDDSFEKTVQLIEKIRPEIINVTKFSPRELTADFEKRPKPTNILKEQDRMIADMHKEILQEKFSNLIGKTEFVLITENGKGRSMIGRDHAYRPIVIMDKTRKFEFHQVEITGFENTSLIGRIIDLEHHHHHH”: “failed”; “MKKAMLLIKNGKILTMTGVNYDSGSVLIDNGKIIKVGENIDVDESCEIIDADGFWVMPGIIEAHCHVGIQEEKRGFEGNDCNEMTNPVTPYLRALDGINPMDSAFYTALTAGITGIMVGPGSANVVGGQWMFLKTYGRAIDKMVVLQPSAMKIAFGENPKANYDKKNMMPSTRIAIAAMLREELFEAQQYYEKRKNAEKSGDSFNKEFRKECWVPVFDKKIPLKAHVHRADDILTAIRIAKEFNLNLTLDHCTEGHLVAKEIKESGFPAIVGPTLTSRNKIETQYADFKTAGILHNEGVKVAITTDHPVTRIQDLLICAGLAAKEGLGIEEGLKAITINPAEICNVANRVGSIEVNKDADIAIFDGNPMETFTKTMYTIINGEIVYSLKDKNY”: “failed”; “MKKDLISVVMSAYNSEKFISDSISSILDQTYENWELIIINDASSDNTLKIVNQFSEKDPRIKVIDNENNLGLTISLNIGINNSKGEFIARLDSDDFAEPSRLEKELDHLHAYPEAGLVGSGAHLINSSGNKIGSMNVMSQPYFVNRFLINLNPFIHSSIMVRKKALDNVGSYREKFRYSQDYDLILRLSDKYKLSNIALPLIRWRVSDSSVTMQHHTLQRIYADIAREFAIERRNSGHDSYESTEFDTLIHEMRIRNQGRYLCDHGVYDLLFNKKYKEGCSELIKGISKGGFPYNSFYRGITQVISKVNIQLEHHHHHH”: “failed”.
